Data taken from the supplement of paper PMC10899765.

Tested on: MCF10A
Assay: one-nucleolus phenotype percent effect (relative to siNT 0% and siNOL11 100%); higher = more cells with one nucleolus (ribosome biogenesis inhibition)
Conditions: 20 nM; 72 h
Experimental: (§1)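 After 72 h, cells were fixed and stained with Hoechst and anti-fibrillarin, and nucleoli per nucleus were counted with CellProfiler. Values are plate-adjusted percent effect for the one-nucleolus and 5+ nucleoli phenotypes, normalised to siNT (0%) and to the positive controls siNOL11 or siKIF11 (100%), as the mean of biological triplicates. Percent viability is the nuclei count relative to siNT.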

| Sequence | one-nucleolus phenotype percent effect [%] |
| --- | --- |
| GUGGUUAUCCCUGCUGUGUUCG [hsa-miR-487a-5p] | -14.4 |
| CGUCCCACCCCCCACUCCUGU [hsa-miR-4433-5p] | -1.75 |
| AUAAGACGAGCAAAAAGCUUGU [hsa-miR-208a] | -6.61 |
| UGAGGUAGUAGGUUGUGUGGUU [hsa-let-7b-5p] | -9.82 |
| GAAAGUGCUUCCUUUUAGAGGC [hsa-miR-526b-3p] | -23.4 |
| UGGCCCAAGACCUCAGACC [hsa-miR-7155-3p] | 11.3 |
| CACCAUGGACGGUUUACC [hsa-miR-7153-3p] | 62.9 |
| UAGUGGAUGAUGCACUCUGUGC [hsa-miR-3681-5p] | 15.8 |
| UCACUGUUCAGACAGGCGGA [hsa-miR-1208] | -21.6 |
| CUGACCUAUGAAUUGACAGCC [hsa-miR-192-5p] | 57.2 |
| CGUGCCACCCUUUUCCCCAG [hsa-miR-1227-3p] | 6.65 |
| CUUAUCAGAUUGUAUUGUAAUU [hsa-miR-374a-3p] | -24.3 |
| ACCAGCCUGUGUCCACCUCCAG [hsa-miR-6849-3p] | 13.6 |
| CCCUCUCUGGCUCCUCCCCAAA [hsa-miR-4723-3p] | -23.7 |
| UGGGAAUGGGGGUAAGGGCC [hsa-miR-6716-5p] | 19.7 |
| UUGUGGAUCUCAAGGAUGUGCU [hsa-miR-4752] | 43.7 |
| UGAUGGAUAAAAGACUACAUAUU [hsa-miR-3134] | 23.3 |
| UCCUUCUGCUCCGUCCCCCAG [hsa-miR-1237-3p] | -0.823 |
| AGAGGACCCGUAGCUGCUAGAAGG [hsa-miR-4751] | -23.3 |
| UCAAGUAGUUUCAUGAUAAAGG [hsa-miR-5697] | -14.6 |

| Sequence | one-nucleolus phenotype percent effect [%] |
| --- | --- |
| CCUGACACCCCAUCUGCCCUCA [hsa-miR-6730-3p] | 26.8 |
| UGAGGUAGUAGGUUGUAUAGUU [hsa-let-7a-5p] | -24.4 |
| CAGGUAGAUAUUUGAUAGGCAU [hsa-miR-3927-3p] | -16.5 |
| AACUGAACCAGGAGUGAGCUUCG [hsa-miR-4724-5p] | 6.7 |
| GAAUCGGAAAGGAGGCGCCG [hsa-miR-3610] | -7.32 |
| GCUGGUGCAAAAGUAAUGGCGG [hsa-miR-548q] | 46 |
| UGUAGAUACGAGCACCAGCCAC [hsa-miR-3935] | -7.2 |
| CUGUCCUAAGGUUGUUGAGUU [hsa-miR-676-3p] | -12 |
| CUUAGAUUAGAGGAUAUUGUU [hsa-miR-8061] | -12.7 |
| ACUGUAAACGCUUUCUGAUG [hsa-miR-3607-3p] | -18.5 |
| UAUCAUGGAGUUGGUAAAGCAC [hsa-miR-2681-3p] | -14.9 |
| UGUUGUCAUGUUUUUUCCCUAG [hsa-miR-6755-3p] | -6.42 |
| CCUCUGAAAUUCAGUUCUUCAG [hsa-miR-146a-3p] | -13.5 |
| UAGACGUGGUGAAGGAUUGAGUG [hsa-miR-6863] | 1.02 |
| GCAGGACAGGCAGAAGUGGAU [hsa-miR-4436a] | -24.9 |
| AGGAGCUAGCCAGGCAUAUGCA [hsa-miR-4633-3p] | 37.9 |
| CCCCAGGGCGACGCGGCGGG [hsa-miR-1915-3p] | -13.1 |
| CCCCGGGAACGUCGAGACUGGAGC [hsa-miR-1247-3p] | 41.2 |
| CUAUGGCGAGACUGGCAUGUACUC [hsa-miR-8074] | -12.8 |
| CCAGAGAUGGUUGCCUUCCUAU [hsa-miR-4756-3p] | -3.67 |

| Sequence | one-nucleolus phenotype percent effect [%] |
| --- | --- |
| CUGGGAGGUGGAUGUUUACUUC [hsa-miR-30b-3p] | 39.4 |
| UGAGGACAGGGCAAAUUCACGA [hsa-miR-5004-5p] | 10 |
| UUCACCACCUUCUCCACCCAGC [hsa-miR-197-3p] | 10.8 |
| AGGACUGGACUCCCGGCAGCCC [hsa-miR-4515] | 15.9 |
| UGUGGGUGGGAAGGACUGGAUU [hsa-miR-6748-5p] | 30.1 |
| ACCACUGACCGUUGACUGUACC [hsa-miR-181a-2-3p] | -14.1 |
| GCCUCUCUCGGAGUCGCUCGGA [hsa-miR-3183] | -23.3 |
| AUCCUAGUCACGGCACCA [hsa-miR-7975] | 12.9 |
| AAUGGCUGUCCGUAGUAUGGUC [hsa-miR-889-5p] | 43.3 |
| GGUGCAGUGCUGCAUCUCUGGU [hsa-miR-143-5p] | -7.79 |
| UAAAUAGAGUAGGCAAAGGACA [hsa-miR-3121-3p] | -18 |
| UCGUAUCAGAGAUUCCAGACAC [hsa-miR-6506-3p] | 5.43 |
| UCUGUGCUUCACCCCUACCCAG [hsa-miR-6737-3p] | 3.19 |
| CCGGCCGCCGGCUCCGCCCCG [hsa-miR-1908-3p] | -14.6 |
| UGGUUGACCAUAGAACAUGCGC [hsa-miR-380-5p] | 13.4 |
| CAGGAGGCAGUGGGCGAGCAGG [hsa-miR-4695-5p] | -5.49 |
| AAAAGCUGGGUUGAGAGGGCGA [hsa-miR-320a] | 18.7 |
| AGUGCCUGAGGGAGUAAGAGCCC [hsa-miR-550a-5p] | 7.21 |
| UGAGUCAGCAACAUAUCCCAUG [hsa-miR-5702] | -25.5 |

Tested on: MCF10A
Assay: percent viability (nuclei count relative to siNT); higher = more viable cells
Conditions: 20 nM; 72 h
Experimental: as §1

| Sequence | percent viability [%] |
| --- | --- |
| GUGGUUAUCCCUGCUGUGUUCG [hsa-miR-487a-5p] | 42 |
| CGUCCCACCCCCCACUCCUGU [hsa-miR-4433-5p] | 40.9 |
| AUAAGACGAGCAAAAAGCUUGU [hsa-miR-208a] | 100 |
| UGAGGUAGUAGGUUGUGUGGUU [hsa-let-7b-5p] | 22.8 |
| GAAAGUGCUUCCUUUUAGAGGC [hsa-miR-526b-3p] | 105 |
| UGGCCCAAGACCUCAGACC [hsa-miR-7155-3p] | 35.1 |
| CACCAUGGACGGUUUACC [hsa-miR-7153-3p] | 23.4 |
| UAGUGGAUGAUGCACUCUGUGC [hsa-miR-3681-5p] | 50 |
| UCACUGUUCAGACAGGCGGA [hsa-miR-1208] | 112 |
| CUGACCUAUGAAUUGACAGCC [hsa-miR-192-5p] | 28.2 |
| CGUGCCACCCUUUUCCCCAG [hsa-miR-1227-3p] | 93.4 |
| CUUAUCAGAUUGUAUUGUAAUU [hsa-miR-374a-3p] | 160 |
| ACCAGCCUGUGUCCACCUCCAG [hsa-miR-6849-3p] | 46 |
| CCCUCUCUGGCUCCUCCCCAAA [hsa-miR-4723-3p] | 114 |
| UGGGAAUGGGGGUAAGGGCC [hsa-miR-6716-5p] | 28.8 |
| UUGUGGAUCUCAAGGAUGUGCU [hsa-miR-4752] | 31.5 |
| UGAUGGAUAAAAGACUACAUAUU [hsa-miR-3134] | 27.6 |
| UCCUUCUGCUCCGUCCCCCAG [hsa-miR-1237-3p] | 52.7 |
| AGAGGACCCGUAGCUGCUAGAAGG [hsa-miR-4751] | 106 |
| UCAAGUAGUUUCAUGAUAAAGG [hsa-miR-5697] | 118 |
| CCUGACACCCCAUCUGCCCUCA [hsa-miR-6730-3p] | 61.8 |
| UGAGGUAGUAGGUUGUAUAGUU [hsa-let-7a-5p] | 29.1 |
| CAGGUAGAUAUUUGAUAGGCAU [hsa-miR-3927-3p] | 24.8 |
| AACUGAACCAGGAGUGAGCUUCG [hsa-miR-4724-5p] | 77.9 |
| GAAUCGGAAAGGAGGCGCCG [hsa-miR-3610] | 93.4 |
| GCUGGUGCAAAAGUAAUGGCGG [hsa-miR-548q] | 30.5 |
| UGUAGAUACGAGCACCAGCCAC [hsa-miR-3935] | 38.5 |
| CUGUCCUAAGGUUGUUGAGUU [hsa-miR-676-3p] | 20.8 |
| CUUAGAUUAGAGGAUAUUGUU [hsa-miR-8061] | 73.7 |
